In patent publication US20230095979A1 (NANTONG YICHEN BIOPHARMA, published 2023):
Substitutions are numbered along the chain they refer to.

B1: hC5a-35 phage (scFv)
scFv: DIQMTQSPSSLSASVGDRVTITCQASQDISNYLNWYQQKPGKAPKLLIYDASNLETGVPSRFSGSGSGTDFTFTIRSLQPEDIATYYCQQYDNLPPWTFGQGTKVEIKGGSSRSSSSGGGGSGGGGEVQLVESGGGLVEPGRSLRLSCTASGYTFGDYAMSWFRQAPGKDLEWVGFIRSKAYGGTTEYAASVKGRFTISRDDSKSIAYLQMNSLKTEDTAVYYCTRAGNDDQYFDYWGQGTQVTVSS
notes: also called hC5a-35scfv; hC5a-35 scfv
B2: 64UV63 phage (scFv)
scFv: ELTLTQSPAFMSATPGDKVNISCKGSQDIDDNMNWYQQKPGEAIIFIIQEATTLVPGIPPRFSGSGYGTDFTLTINNIESEDAAYYFCLQHDNFPPYTFGQGTKLEIKGGSSRSSSSGGGGSGGGGQVQLQESGGGLVQPGGSLRLSCAASGFTFSSYEMNWVRQAPGKGLEWVSYISSSGSTIYYADSVKGRFTISRDNAKNSLYLQMNSLRAEDTAVYYCARDLGGFDPWGQGTLVTASS
notes: also called 64UV63 scFv

What was measured:
hC5a with 6xHis tag = molecular target: T1, hC5a with 6xHis tag (human, UniProt P01031 678-751); assay: monoclonal phage panning on coated antigen; ratio of output CFU with and without UV crosslinking
T1 construct: also called WT hC5a; WT-hC5a
T1 sequence: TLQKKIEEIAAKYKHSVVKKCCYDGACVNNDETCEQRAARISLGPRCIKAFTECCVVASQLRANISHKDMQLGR

Val18pBpa mutant of hC5a = molecular target: T2, Val18pBpa mutant of hC5a (human, UniProt P01031 678-751, not fully specified; p-benzoyl-L-phenylalanine (pBpa) at 18); assay: as above
T2 construct: X stands for pBpa
T2 chain: T1 sequence with V18X

[1] = molecular target: IL1β 64pBpa mutant (human) (UniProt P01584); assay: monoclonal phage panning on coated antigen, no UV, competitive/low-pH washes, trypsin release, colony count
IL1β WT with 6xHis tag = molecular target: T3, IL1β WT with 6xHis tag (human, UniProt P01584 117-269); assay: monoclonal phage panning on coated antigen; ratio of output CFU with and without UV crosslinking
T3 construct: Expressed in E. coli from pET28a with a C-terminal 6xHis tag; about 19 kDa on SDS-PAGE; also called WT IL1β; wild-type IL1β
Source text: Colony Forming Unit (CFU) was counted, and finally the positive clones(hits) were picked.
After elution, the output CFUs of UV and non-UV-treated groups were counted and compared.

[2] = molecular target: IL1β 64pBpa mutant (human) (UniProt P01584); assay: monoclonal phage panning on coated antigen, UV 365 nm, competitive/low-pH washes, trypsin release, colony count
[3] = molecular target: IL1β 64pBpa mutant (human) (UniProt P01584); assay: monoclonal phage panning on coated antigen; ratio of output CFU with and without UV crosslinking

Row | Binder | UV-treated output CFU/Non-UV-treated output CFU (hC5a with 6xHis tag) [ratio] | UV-treated output CFU/Non-UV-treated output CFU (Val18pBpa mutant of hC5a) [ratio] | Non-UV-treated output CFU [1] [CFU] | UV-treated output CFU/Non-UV-treated output CFU (IL1β WT with 6xHis tag) [ratio] | UV-treated output CFU [2] [CFU] | UV-treated output CFU/Non-UV-treated output CFU [3]
1 | B1 | 1.1 | 3.3 | – | – | – | –
2 | B2 | – | – | 22 | 1.1 | 140 | 6.4
